In patent publication US5521157A, “Modified polypeptide compound with VIP-like activity” (Sanwa Kagaku Kenkyusho Co., Ltd., priority 1993, dated 1996):
Square brackets hold non-standard residues; d marks the D form. Ends that are not written are not given here. Peptide text beside a SMILES is read from it. hSer = N[C@@H](CCO)C(=O)O

Legend:
[1] = Measurement of elution time in reversed phase HPLC (correlates to hydrophobicity); format: physicochemical; details: reversed phase C-18 column, 40° C., 0.012N hydrochloric acid with 15, 25 and 50% acetonitrile, 50 minutes, 0.8 ml/min
Procedure: (Measurement of elution time in reversed phase HPLC)
It is well known that the elution time in HPLC with the use of a reversed phase column correlates to the hydrophobicity of a compound (cf. J. Med. Chem., vol. 18, pp. 549-552 (1975) and J. Pharm. Sci., vol. 66, pp. 747-749 (1977)). Thus, the elution time of each of the VIP analog derivatives obtained in the above Reference Production Example and production Examples was measured under the HPLC conditions as specified below. As a control, natural VIP having a human type amino acid sequence (purchased from Peptide Institute, INC.) was employed.
Column: μ-BONDASPHERE C-18 column (manufactured by Millipore Corporation, 3.9 mm×150 mm)
Eluent: eluted with 0.012N hydrochloric containing 15, 25 and 50% of acetonitrile in this order, for 50 minutes
Detection wavelength: 210 nm

[2] = system: histamine-induced bronchoconstriction; test: Duration of bronchoconstriction suppressing activity (Konzett-Rossler method); format: in vivo; details: male guinea pig, drug dropped directly into the respiratory tract, 5 μg/kg histamine intravenously
Procedure: (Duration of bronchoconstriction suppressing activity)
The inhibitory activity of the VIP analog derivatives, obtained in the Production Examples above, on histamine-induced bronchoconstriction was evaluated on test samples in accordance with a Konzett-Rossler method. Natural type VIP was used as a control.
First, a male guinea pig was fixed under urethane-anesthesia. After cutting the neck of the animal, a canula drug line was inserted into its jugular vein while a canula connected to a Konzett-Rossler device was inserted into its respiratory tract. After dropping a test drug directly into the respiratory tract, the head of the animal was held up for 1 minute to allow the drug to reach the lungs. Subsequently, 5 μg/kg of histamine was intravenously administered to the animal and the bronchoconstriction was measured over time. One minute before the administration of histamine, succinylcholine chloride was intravenously administered to the animal to thereby suppress spontaneous respiration during the experiment. Evaluation was made in the following manner. Before the administration of the test drug, the intensity of bronchoconstriction induced by histamine was measured. Then, after the administration of the test drug, the time required for reducing by 50% the suppression of bronchoconstriction induced by the same dose of histamine as measured above was defined as t50. The t50 of each test drug was determined.

[3] = in vitro; details: male, Hartley, guinea pig, pH 7.8
Procedure: First, male Hartley guinea pigs (weight: 350-380 g) were anesthetized by intraperitoneally administering urethane. Next, the respiratory tract of each animal was exposed by cutting its neck and 4 ml of physiological saline was slowly injected into the respiratory tract. Then, the injected solution was recovered from the respiratory tract, which is referred to as the broncho-alveolar lavage wash.
1, 2, 3 and 4 hours after the initiation of the incubation, the reaction mixture was collected and the residual concentration of the (SEQ ID NO: 3)-n-hexylamide or the natural type VIP was measure under the following HPLC conditions to thereby determine the half-life thereof.
Column: μ-BONDASPHERE C-18 column (manufactured Waters Co., 3.9 mm×150 mm)
Eluent: eluted with 0.012N hydrochloric containing acetonitrile at a linear gradient concentration from 15 to 25%, for 20 min

[4] = target: enkephalinase (Homo sapiens, UniProt P08473); details: incubated with enkephalinase, within 15 minutes; cited from earlier work
Chain of enkephalinase (P08473 whole entry, species assumed): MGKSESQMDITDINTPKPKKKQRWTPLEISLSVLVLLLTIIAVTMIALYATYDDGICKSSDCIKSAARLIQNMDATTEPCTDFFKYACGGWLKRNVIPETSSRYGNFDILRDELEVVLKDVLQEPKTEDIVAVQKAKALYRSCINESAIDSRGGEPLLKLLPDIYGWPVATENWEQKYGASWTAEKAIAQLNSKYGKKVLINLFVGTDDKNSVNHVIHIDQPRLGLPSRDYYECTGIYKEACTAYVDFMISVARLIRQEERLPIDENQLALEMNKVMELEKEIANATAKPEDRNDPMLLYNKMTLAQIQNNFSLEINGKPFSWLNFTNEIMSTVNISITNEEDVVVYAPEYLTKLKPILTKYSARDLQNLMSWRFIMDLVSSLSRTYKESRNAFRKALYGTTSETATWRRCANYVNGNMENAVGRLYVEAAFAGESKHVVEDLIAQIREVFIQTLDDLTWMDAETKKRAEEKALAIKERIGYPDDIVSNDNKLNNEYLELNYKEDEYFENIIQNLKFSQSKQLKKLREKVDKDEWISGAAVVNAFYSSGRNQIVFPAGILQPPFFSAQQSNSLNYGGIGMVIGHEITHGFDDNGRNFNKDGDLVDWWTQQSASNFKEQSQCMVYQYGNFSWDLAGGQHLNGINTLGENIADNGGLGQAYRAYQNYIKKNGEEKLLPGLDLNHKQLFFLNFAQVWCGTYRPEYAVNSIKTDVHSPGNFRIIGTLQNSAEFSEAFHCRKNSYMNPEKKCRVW

[5] = broncho-alveolar lavage wash from guinea pig at 37° C.; cited from earlier work

## Reference Production Example: basic VIP analog of SEQ ID NO: 3 disclosed in JP-A-6-220090 / EP-A-0,613,904, starting material of the derivatives (HSDAVFTGNYTKLRKQLAAKKYLNKALK[hSer]; ends and bridges not checked) [reference compound]
[1]
  Retention time: 13.8 min
[2]
  t50: 26 min

## VIP analog-dihexylamide derivative (HSDAVFTGNYTKLRKQLAAKKYLNKALK[hSer]-dihexylamide) [Production Example 6]
[1]
  Retention time: 41.4 min

## VIP analog-ethylenediaminemonoamide derivative (HSDAVFTGNYTKLRKQLAAKKYLNKALK[hSer]-{ethylenediamine monoamide}) [Production Example 8]
[1]
  Retention time: 12.1 min

## VIP analog-n-propylamide derivative (HSDAVFTGNYTKLRKQLAAKKYLNKALK[hSer]-{n‑propylamide}) [Production Example 1]
[1]
  Retention time: 18.0 min

## VIP analog-triethylenetetraminemonoamide derivative (HSDAVFTGNYTKLRKQLAAKKYLNKALK[hSer]-{triethylenetetramine monoamide}) [Production Example 7]
[1]
  Retention time: 10.9 min
[2]
  t50: 58 min

## VIP analog-stearylamide derivative (HSDAVFTGNYTKLRKQLAAKKYLNKALK[hSer]-stearylamide) [Production Example 4]
[1]
  Retention time: 46.8 min

## CCCCCCNC(=O)[C@H](CCO)NC(=O)[C@H](CCCCN)NC(=O)[C@H](CC(C)C)NC(=O)[C@H](C)NC(=O)[C@H](CCCCN)NC(=O)[C@H](CC(N)=O)NC(=O)[C@H](CC(C)C)NC(=O)[C@H](Cc1ccc(O)cc1)NC(=O)[C@H](CCCCN)NC(=O)[C@H](CCCCN)NC(=O)[C@H](C)NC(=O)[C@H](C)NC(=O)[C@H](CC(C)C)NC(=O)[C@H](CCC(N)=O)NC(=O)[C@H](CCCCN)NC(=O)[C@H](CCCNC(=N)N)NC(=O)[C@H](CC(C)C)NC(=O)[C@H](CCCCN)NC(=O)[C@@H](NC(=O)[C@H](Cc1ccc(O)cc1)NC(=O)[C@H](CC(N)=O)NC(=O)CNC(=O)[C@@H](NC(=O)[C@H](Cc1ccccc1)NC(=O)[C@@H](NC(=O)[C@H](C)NC(=O)[C@H](CC(=O)O)NC(=O)[C@H](CO)NC(=O)[C@@H](N)Cc1c[nH]cn1)C(C)C)[C@@H](C)O)[C@@H](C)O [Production Example 2, VIP analog-n-hexylamide derivative] (HELM PEPTIDE1{H.S.D.A.V.F.T.G.N.Y.T.K.L.R.K.Q.L.A.A.K.K.Y.L.N.K.A.L.K.[O=C([C@H](CCO)N[*:1])[*:2]].[CCCCCCN[*:1]]}$$$$V2.0)
[3]; broncho-alveolar lavage wash
  half-life at 330 μg/ml: 4.9 h

## VIP analog-oleylamide derivative (HSDAVFTGNYTKLRKQLAAKKYLNKALK[hSer]-oleylamide) [Production Example 5]
[1]
  Retention time: 48.3 min

## CC[C@H](C)[C@H](NC(=O)[C@H](CO)NC(=O)[C@H](CC(N)=O)NC(=O)[C@H](CC(C)C)NC(=O)[C@H](Cc1ccc(O)cc1)NC(=O)[C@H](CCCCN)NC(=O)[C@H](CCCCN)NC(=O)[C@@H](NC(=O)[C@H](C)NC(=O)[C@H](CCSC)NC(=O)[C@H](CCC(N)=O)NC(=O)[C@H](CCCCN)NC(=O)[C@H](CCCN=C(N)N)NC(=O)[C@H](CC(C)C)NC(=O)[C@H](CCCN=C(N)N)NC(=O)[C@@H](NC(=O)[C@H](Cc1ccc(O)cc1)NC(=O)[C@H](CC(N)=O)NC(=O)[C@H](CC(=O)O)NC(=O)[C@@H](NC(=O)[C@H](Cc1ccccc1)NC(=O)[C@@H](NC(=O)[C@H](C)NC(=O)[C@H](CC(=O)O)NC(=O)[C@H](CO)NC(=O)[C@@H](N)Cc1c[nH]cn1)C(C)C)[C@@H](C)O)[C@@H](C)O)C(C)C)C(=O)N[C@@H](CC(C)C)C(=O)N[C@@H](CC(N)=O)C(N)=O [VIP, vasoactive intestinal polypeptide]
[4]
  VIP degraded: more than 70%
[3]; cerebrospinal or other body fluid
  half-life at 330 μg/ml: 1.2 h
[5]
  half-life: about 1.5 hours

## VIP analog-laurylamide derivative (HSDAVFTGNYTKLRKQLAAKKYLNKALK[hSer]-laurylamide) [Production Example 3]
[1]
  Retention time: 40.0 min
[2]
  t50: 61 min
